Fewer inactive variants are shown than the library holds. Bounds are passed on as bounds.

B1: TPR 5TU (parent)
chain: GGAUCUUCUCGAUCUAACAAAAAAGACAAAUCUGCCACAAAGCUUGAGAGCAUCUUCGGAUGCAGAGGCGGCAGCCUUCGGUGGCGCGAUAGCGCCAACGUUCUCAACUAUGACACGCAAAACGCGUGCUCCGUUGAAUGGAGUUUAUCAUG

In the series the parent is B1. The series can be described thus: polymerase ribozyme fitness, log enrichment relative to wild type (log ratio); higher = more active; in vitro selection for triplet polymerase activity. The method, boiled down:
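Streptavidin-bead capture of gel-excised extended constructs, followed by RT-PCR, closed a single triplicate in vitro selection round. That round began by annealing PCR-built, transcribed mutant libraries of each subunit of a heterodimeric triplet polymerase ribozyme with a biotinylated primer, the partner subunit and triplets, then incubating them frozen at −7 °C. After Illumina sequencing of inputs and outputs, genotypes needed ≥10 input reads and ≥1 read per output. Fitness is the base-2 logarithm of genotype enrichment over wild-type enrichment, using inverse-variance-weighted replicate averages.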
For the variant G34U A142C, the “polymerase ribozyme fitness (log ratio)” value is -3.85.
The same measure for U33G G58U A91C G143U: -3.87.
The same measure for U33G U55G G68A C79A G84U G136U: no more than -4.2.
C35A A64C A98U C99U G152U: the “polymerase ribozyme fitness (log ratio)” value was no more than -4.2.
With G34U U77G C87A A113C, the “polymerase ribozyme fitness (log ratio)” value was no more than -4.2.
The same measure for C35A C93G A98C C99U G141C: no more than -4.2.
For the variant G34A C87A G141A, the “polymerase ribozyme fitness (log ratio)” value was no more than -4.2.
Turning to G34A C79U A107C C108G C116G, the “polymerase ribozyme fitness (log ratio)” value was no more than -4.2.
The same measure for G34A C57G G117A U144A: -3.39.
In the case of G34C G58A U77A U82G G86A C105A U127A G141C, the “polymerase ribozyme fitness (log ratio)” value was no more than -4.2.
G34A C95U G136A: the “polymerase ribozyme fitness (log ratio)” value was -0.0966.
Consider G34C A41G C54A U135C U145G, for which the “polymerase ribozyme fitness (log ratio)” value was no more than -4.2.
Consider C35A A52C C79G C96U U127C C149A, for which the “polymerase ribozyme fitness (log ratio)” value is no more than -4.2.
The same measure for C35A C79A G83A C99A: no more than -4.2.
Take U33C G143C: the “polymerase ribozyme fitness (log ratio)” value is no more than -4.2.
In the case of G34A A41G A120U, the “polymerase ribozyme fitness (log ratio)” value was -1.2.
The same measure for G34U A41G G81A G84U C87A C93A A110G: no more than -4.2.
Turning to U33C G81U C93G G143U, the “polymerase ribozyme fitness (log ratio)” value was -4.06.
In the case of U33G C35A A66G C93U U104G C105U U134G, the “polymerase ribozyme fitness (log ratio)” value is no more than -4.2.
The same measure for G34U C76U A119U: -3.19; for U33G A40G C54U U55G A98G A147U A150C: no more than -4.2.
The same measure for C35A A89U U90G C99U U144G: no more than -4.2; for G34A C57A C87U A89U G94U C96A U104A C105G A110U G126U: no more than -4.2; for C35A A41C G59C C87U G100C C105G A121C: no more than -4.2.
With G34A G140A, the “polymerase ribozyme fitness (log ratio)” value is -3.88.
The same measure for C35A C76A C93A U148C: no more than -4.2; for U33G G34U: no more than -4.2; for G34U C54U A66C A91U A121U: -4.11.
The same measure for U33G A73G: -0.513; for G34A A37C C43U C125G U130A C149A: no more than -4.2.
As for G34A G50A G68U G71A C76A C85A C125U, the “polymerase ribozyme fitness (log ratio)” value was no more than -4.2.
As for C35A C57U C93G U134A U139A, the “polymerase ribozyme fitness (log ratio)” value was no more than -4.2.
In the case of G34C A66G G86U A107C G141U, the “polymerase ribozyme fitness (log ratio)” value was no more than -4.2.
The same measure for C35A C43U A49U A64G C76U C96A U101G C149U: no more than -4.2.
Consider U33G U56A U90A U101G C108G A119U U135C G136A, for which the “polymerase ribozyme fitness (log ratio)” value is no more than -4.2.
Take G34A C87U A89U G100A C103G A107U G124C U135G G140A G141C: the “polymerase ribozyme fitness (log ratio)” value is no more than -4.2.
Consider U33G A60G, for which the “polymerase ribozyme fitness (log ratio)” value was -2.79.
On to G34A U77G C87A A91C C108U G133A, for which the “polymerase ribozyme fitness (log ratio)” value was no more than -4.2.
G34A C75U: the “polymerase ribozyme fitness (log ratio)” value was -3.68.
With U33G C95G C116A, the “polymerase ribozyme fitness (log ratio)” value was -4.15.
The same measure for G34U G58C C69U A91G G128A U135C: no more than -4.2.
The same measure for U33G C54A G86A C87G A119U A122U G143C A147C: no more than -4.2; for U33G U53A: -3.68; for G34U C75G G81U C87U A120U: -3.98.
The same measure for G34A A49C C95U G140U G141A: no more than -4.2; for G34A A91G: -3.57.
With U33G U61A, the “polymerase ribozyme fitness (log ratio)” value is -3.72.
The same measure for G34U A47U: -2.01.
In the case of U33G G117A U134C, the “polymerase ribozyme fitness (log ratio)” value is -2.88.
With U33G C85G G117C, the “polymerase ribozyme fitness (log ratio)” value was no more than -4.2.
The same measure for U33G G50A C63G G94A C95G C116U: no more than -4.2; for G34C U139G: -3.21.
The same measure for G34U A39U C43A C85U G117A: -3.98; for C35A A66G C87U U127C: no more than -4.2.
The same measure for U33G C72U C95A G126U A137G: no more than -4.2.
Take G34U C96G: the “polymerase ribozyme fitness (log ratio)” value is -2.91.
Turning to G34U C36G G59C U148C, the “polymerase ribozyme fitness (log ratio)” value was no more than -4.2.
The same measure for G34A C36A A137G: no more than -4.2; for G34U G94A: -2.37; for G34U C51A G84C: no more than -4.2.
In the case of C35A C76A C93U A113U U130G A147G, the “polymerase ribozyme fitness (log ratio)” value was no more than -4.2.
The same measure for G34A G58A U90A G94A U109G: no more than -4.2; for U33G C35G A60G A107G: no more than -4.2; for C35A C85A: -3.65.
With U33G A52C G92C U139C, the “polymerase ribozyme fitness (log ratio)” value is no more than -4.2.
The same measure for G34A U145A: -0.571.
The same measure for U33G G48A G59A G84A G88A C149U: no more than -4.2.
The same measure for G34A U55A C69A C76U G80C C87G A89C A107C C116U: no more than -4.2; for U33G G50A A52C C76U C79U A107G U151A: no more than -4.2.
Turning to C35A A39C A91U A121U, the “polymerase ribozyme fitness (log ratio)” value was no more than -4.2.
Consider G34C U78C A91G U146A, for which the “polymerase ribozyme fitness (log ratio)” value is no more than -4.2.
The same measure for U33G G46C G71A U78G U90G A110C U127C G141C: no more than -4.2; for U33G A113C: -4.01.
With C35A A39G G141U, the “polymerase ribozyme fitness (log ratio)” value was no more than -4.2.
For G34U G83U A115G U145G, the “polymerase ribozyme fitness (log ratio)” value was no more than -4.2.
The same measure for G34C: -1.49; for G34A: -0.292.
The same measure for G34U: -1.11; for U33G G42A G58C A91G G100A: no more than -4.2; for G34A C85U U101G: -3.5.
On to U33G C116U, for which the “polymerase ribozyme fitness (log ratio)” value was -2.7.
Take G34U A40G U55G U56A U101A U102G G126A: the “polymerase ribozyme fitness (log ratio)” value was no more than -4.2.
The same measure for G34U A41G A47C C116U: no more than -4.2.

Values taken from the RNAGym collection of RNA variant scans (doi:10.1073/pnas.2313332121).
